Laboratory results reported in publication doi:10.1101/2025.04.25.650662 (bioRxiv, 2025).

What was measured:
[1] = target: Leucine-rich repeat containing, G protein-coupled receptor 4 (LGR4), human, on HEK293T cells (human, UniProt Q9BXB1 25-951); experiment: whole-cell binding assay
[2] = target: Leucine-rich repeat containing, G protein-coupled receptor 5 (LGR5), human, on HEK293T cells (HEK293-LGR5-DeltaC) (human) (UniProt O75473); experiment: whole-cell binding assay
Chain of Leucine-rich repeat containing, G protein-coupled receptor 5 (LGR5), human, on HEK293T cells (HEK293-LGR5-DeltaC) (human) (O75473 22-907, stated change not applied): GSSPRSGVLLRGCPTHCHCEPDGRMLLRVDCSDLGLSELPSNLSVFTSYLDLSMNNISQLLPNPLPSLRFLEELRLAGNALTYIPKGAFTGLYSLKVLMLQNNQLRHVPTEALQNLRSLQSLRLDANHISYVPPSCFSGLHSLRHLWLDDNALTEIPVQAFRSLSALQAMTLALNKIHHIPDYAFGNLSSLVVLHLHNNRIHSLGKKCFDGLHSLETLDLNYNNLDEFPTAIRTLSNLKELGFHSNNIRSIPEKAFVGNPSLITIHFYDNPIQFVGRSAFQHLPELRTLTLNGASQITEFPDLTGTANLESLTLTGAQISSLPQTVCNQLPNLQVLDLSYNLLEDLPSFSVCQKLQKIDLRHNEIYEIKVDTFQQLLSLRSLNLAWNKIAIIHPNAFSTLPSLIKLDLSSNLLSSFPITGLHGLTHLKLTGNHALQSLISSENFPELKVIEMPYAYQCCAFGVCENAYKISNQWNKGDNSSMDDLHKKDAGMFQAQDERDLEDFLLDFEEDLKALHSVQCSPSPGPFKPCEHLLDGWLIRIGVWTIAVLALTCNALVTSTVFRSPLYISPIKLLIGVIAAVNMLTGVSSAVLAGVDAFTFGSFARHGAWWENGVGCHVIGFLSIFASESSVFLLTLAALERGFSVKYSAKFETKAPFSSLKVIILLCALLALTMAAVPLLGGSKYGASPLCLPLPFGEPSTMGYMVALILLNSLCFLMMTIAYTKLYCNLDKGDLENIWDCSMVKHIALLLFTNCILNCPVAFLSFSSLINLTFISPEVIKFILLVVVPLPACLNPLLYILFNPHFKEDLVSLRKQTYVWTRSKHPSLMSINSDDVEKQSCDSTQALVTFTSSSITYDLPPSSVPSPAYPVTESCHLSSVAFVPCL

B1: R232, RSPO2 furin domain M68T/Q70R double mutant fused to human IgG1-Fc (Fc fusion)
chain: CKGCLSCSKDNGCSRCQQKLFFFLRREGTRRYGECLHSCPSGYYGHRAPDMNRCARCRIENCDSCFSKDFCTKCKVGFYLHRGRCFDECPDGFAPLEETMEC
Kd [1]: 0.2 nM
Kd [2]: 0.3 nM
